Patent publication US20250060376A1 (PLASMARKER BIOTECHNOLOGY, published 2025)

T1: fragment DIR-II (last 27 amino acids of the sequence encoded by the retained intron of DIR) (human)
T1 construct: also called target fragment DIR-II
T1 peptide: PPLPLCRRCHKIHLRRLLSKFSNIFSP

T2: DNA damage-inducible transcript 4-like (DDIT4L) intron retention spliced product (DIR) protein (human)
T2 construct: 84 aa spliced product peptide; also called QDLIR; human DIR
T2 chain: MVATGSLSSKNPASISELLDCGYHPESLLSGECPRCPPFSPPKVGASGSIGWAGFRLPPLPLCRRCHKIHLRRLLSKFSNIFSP


Assays:
[1] = molecular target: T1, fragment DIR-II (last 27 amino acids of …); experiment: ELISA, DIR-II coated; mAb (1 mg/mL) diluted 1:1458k
Method: (§1) The binding activity of the above antibodies IR-II-1 to IR-II-10 to fragments DIR-II was detected. The method specifically comprises:
(§2) The target fragment DIR-II was coated on a 96-well plate using a coating buffer and blocked with a blocking buffer. […] Then, a secondary antibody with horseradish peroxidase (1:5k) was added and incubated at 37° C. After washing three times, an appropriate volume of TMB substrate solution was added, and the resulting mixture was incubated at 37° C. for a certain period of time, and then placed under a microplate reader to record the absorbance value of the sample at a wavelength of 450 nm.

[2] = molecular target: T1, fragment DIR-II (last 27 amino acids of …); experiment: ELISA, DIR-II coated; mAb (1 mg/mL) diluted 1:18k
Method: as §1, §2

[3] = molecular target: T1, fragment DIR-II (last 27 amino acids of …); experiment: ELISA, DIR-II coated; mAb (1 mg/mL) diluted 1:2k
Method: as §1, §2

[4] = molecular target: T1, fragment DIR-II (last 27 amino acids of …); experiment: ELISA, DIR-II coated; mAb (1 mg/mL) diluted 1:54k
Method: as §1, §2

[5] = molecular target: T1, fragment DIR-II (last 27 amino acids of …); experiment: ELISA, DIR-II coated; mAb (1 mg/mL) diluted 1:4374k
Method: as §1, §2

[6] = molecular target: T1, fragment DIR-II (last 27 amino acids of …); experiment: ELISA, DIR-II coated; mAb (1 mg/mL) diluted 1:162k
Method: as §1, §2

[7] = molecular target: T1, fragment DIR-II (last 27 amino acids of …); experiment: ELISA, DIR-II coated; mAb (1 mg/mL) diluted 1:6k
Method: as §1, §2

[8] = molecular target: T1, fragment DIR-II (last 27 amino acids of …); experiment: ELISA, DIR-II coated; mAb (1 mg/mL) diluted 1:486k
Method: as §1, §2

[9] = molecular target: T2, DNA damage-inducible transcript 4-like …; experiment: sandwich ELISA, capture antibody GL Biochem AB009458, detection antibody IR-II-6 (method of paragraph 444)
Method: Methods for collecting venous blood and obtaining plasma: The blood was collected from the vein in cubital fossa of a patient into an EDTA vacuum tube by using the vacuum blood collection technique, and the tube was immediately inverted gently 8 times to fully mix the blood and an anticoagulant. Then, the tube was transported to the laboratory on ice, centrifuged for 10 min at 1500 g at 4° C., and the supernatant was aspirated, aliquoted, and stored at −80° C.
ELISA method for plasma: The plasma sample was diluted at 1:1 with 1× diluent (OBT1998G, purchased from Bio-Rad); then, 100 μl of a blocking solution was added using a pipette for blockage for 1 h at 37° C.; then, 100 μl of a proportionally diluted standard and diluted plasma were added into plate wells coated with capture antibodies (GL Biochem, AB009458) by using the pipette, the tip of which was changed for each sampling; the resulting mixture was incubated for 1.5 h at 37° C.; the liquid in each well was removed, and the well was washed 3 times with 100 μl 1× washing solution (BUF031C, purchased from Bio-Rad); 100 μl of detection antibody (i. e., the DIR antibody IR-II-6, of which a VH amino acid sequence was as set forth in SEQ ID NO. 58, and of which a VL amino acid sequence was as set forth in SEQ ID NO. […]

Binder | absorbance at 450 nm [1] | absorbance at 450 nm [2] | absorbance at 450 nm [3] | absorbance at 450 nm [4] | absorbance at 450 nm [5] | absorbance at 450 nm [6] | absorbance at 450 nm [7] | absorbance at 450 nm [8] | binding result [9]
DIR antibody IR-II-1 (antibody, V domains shown, Monoclonal antibody) VH: QVQLKESGAELMKPGASVKISCKATGYTFSSYWIEWVKQRPGHGLEWIGEILPGSGTTNYNDKFKGKATFTADTSSNTAYMQLSNLTSEDSAVYYCARSYDGYYVFDYWGQGTTLTVSS VL: DIELTQSPASLAVSLGQRATISCKASQSVDYDGDSYMNWYQQKPGQPPKLLIYAASNLESGIPARFSGSGSGTDFTLNIHPVEEEDAATYYCQQSNEDPRTFGGGTKLEIK | 0.0653 absorbance (450 nm) | 0.818 absorbance (450 nm) | 3.14 absorbance (450 nm) | 0.264 absorbance (450 nm) | 0.0934 absorbance (450 nm) | 0.109 absorbance (450 nm) | 2.98 absorbance (450 nm) | 0.0656 absorbance (450 nm) | –
DIR antibody IR-II-10 (A2D10) (antibody, V domains shown, Monoclonal antibody) VH: EVQLQQSGPELVKPGASVKISCKTSGYTFTEYTMHWVKQSHGKSLEWIGGIYPHNGGTNYNQKFKGKATLTVDKSSSTAYMELRSLTSEDSAVYYCTEDLTFDYWGQGTTLTVSS VL: DIQMTQTTSSLSASLGDRVTISCSASQDISNYLNWYQQKPDGTVKLLIYYTSSLHSGVPSRFSGSGSGTDYSLTISNLEPEDIATYHCLQYSKLPFTFGSGTKLEIK | 0.0501 absorbance (450 nm) | 0.142 absorbance (450 nm) | 2.01 absorbance (450 nm) | 0.0783 absorbance (450 nm) | 0.0427 absorbance (450 nm) | 0.0517 absorbance (450 nm) | 0.472 absorbance (450 nm) | 0.0517 absorbance (450 nm) | –
DIR antibody IR-II-8 (antibody, V domains shown, Monoclonal antibody) VH: QVQLQQSGAELMKPGASVKISCKATGYTFSNYWIEWVKQRPGHGLEWIGEILPGSGSTNYNEKFKGKATFTADTSSNTAYMQLSSLTSEDSAVYYCARSGMITTRGDYFAMDYWGQGTSVTVSS VL: DIELTQSPASLAVSLGQRATISCKASQSVDYDGESYMNWYQQKPGQPPKLLIYAASNLESGIPARFSGSGSGTDFTLNIHPVEEEDAATYYCQQSNDDPRTFGGGTKLEIK | 0.0906 absorbance (450 nm) | 0.257 absorbance (450 nm) | 3.2 absorbance (450 nm) | 0.138 absorbance (450 nm) | 0.0887 absorbance (450 nm) | 0.0911 absorbance (450 nm) | 0.87 absorbance (450 nm) | 0.0864 absorbance (450 nm) | –
DIR antibody IR-II-2 (antibody, V domains shown, Monoclonal antibody) VH: EVQLQQSGAELMKPGASVKISCKATGYTFSSYWIEWVKQRPGHGLEWIGEILPGSGTTNYNEKFKGKATFTVDTSSNTAYMQLSSLTSEDSAVYYCARSGVITARGDYYAMDYWGQGTSVTVSS VL: DIVMTQSPASLAVSLGQRATISCKASQSVDYDGDSYMNWYQQKPGQPPKLLIYAASNLDSGIPARFSGSGSGTDFTLNIHPVEEEDAATYYCQQSNEDPRTFGGGTKLEIK | 0.0839 absorbance (450 nm) | 0.823 absorbance (450 nm) | 3.23 absorbance (450 nm) | 0.193 absorbance (450 nm) | 0.115 absorbance (450 nm) | 0.14 absorbance (450 nm) | 1.62 absorbance (450 nm) | 0.112 absorbance (450 nm) | –
DIR antibody IR-II-5 (antibody, V domains shown, Monoclonal antibody) VH: QVQLQQSGAEVMKPGASVKISCKATGYTFSSYWIEWIKQRPGHGLEWIGEILPGGYNTNSNENFKGKATFTADTSSNTAYMQLSSLTSEDSAVYYCARSGMITTTGDYYAMDYWGQGTSVTVSS VL: DIELTQSPASLAVSLGQRATISCKASQSVDYDGESYMNWYQQKPGQPPKLLIYAASNLESGIPARFSGSGSGTDFTLNIHPVEEEDAATYYCQQSNDDPRTFGGGTKLEIK | 0.0911 absorbance (450 nm) | 0.387 absorbance (450 nm) | 3.24 absorbance (450 nm) | 0.159 absorbance (450 nm) | 0.0868 absorbance (450 nm) | 0.19 absorbance (450 nm) | 1.31 absorbance (450 nm) | 0.285 absorbance (450 nm) | –
DIR antibody IR-II-6 (antibody, V domains shown, Monoclonal antibody; also called detection antibody) VH: QVQLQQSGAELMKPGASVKISCKATGYTFSRYWIEWIKQRPGHGLEWIGEILPGSYYSTNSNEKFKGKATFTADTSSNTAYMQLSSLTSEDSAVYYCARSGVITTRGDYFAMDYWGHGTSVTVSS VL: DIVLTQSPASLAVSLGQRATISCKASQSVDYDGDSYMNWYQQKPGQPPKLLMYAASNLESGIPARFSGSGSGTDFTLNIHPVEEEDAATYYCQQSNEDPRTFGGGTKLEIK | 0.2 absorbance (450 nm) | 2.01 absorbance (450 nm) | 3.09 absorbance (450 nm) | 0.78 absorbance (450 nm) | 0.18 absorbance (450 nm) | 0.414 absorbance (450 nm) | 3.18 absorbance (450 nm) | 0.306 absorbance (450 nm) | binds
DIR antibody IR-II-3 (antibody, V domains shown, Monoclonal antibody) VH: EVQLQQSGAELMKPGASVKISCKATGYTFSNYWIEWIKQRPGHGLEWIGEILPGSYYSTNYNEKFKGKATFTADTSSNTAYIQLSSLTSEDSAVYYCARSGMITTRGDYFAMDYWGQGTSVTVSS VL: not shown | 0.166 absorbance (450 nm) | 1.27 absorbance (450 nm) | 3.05 absorbance (450 nm) | 0.4 absorbance (450 nm) | 0.153 absorbance (450 nm) | 0.366 absorbance (450 nm) | 3.05 absorbance (450 nm) | 0.173 absorbance (450 nm) | –
DIR antibody IR-II-7 (antibody, V domains shown, Monoclonal antibody) VH: QVQLQQSGAELMKPGASVKISCKATGYTFSNYWIEWIKQRPGHGLEWIGEILPGSYYSTNYNEKFKDKATFTADTSSNTAYIQLSSLTSEDSAVYYCARSGIITTRGDYFAMDYWGQGTSVTVSS VL: DIVLTQSPASLAVSLGQRATISCKASQSVDYDGDSYMNWYQQKPGQPPKLLMYAASNLESGIPARFSGSGSGTDFTLNIHPVEEEDAATYYCQQSNEDPRTFGGGTKLEIK | 0.103 absorbance (450 nm) | 1.16 absorbance (450 nm) | 3.09 absorbance (450 nm) | 0.35 absorbance (450 nm) | 0.0867 absorbance (450 nm) | 0.164 absorbance (450 nm) | 2.98 absorbance (450 nm) | 0.121 absorbance (450 nm) | –
DIR antibody IR-II-9 (antibody, V domains shown, Monoclonal antibody) VH: QVQLQQSGAELMKPGASVKISCKATGYTFSRYWIEWIKQRPGHGLEWIGEILPGSYYSTNSNEKFKGKATFTADTSSNTAYMQLSSLTSEDSAVYYCARSGVITTRGDYFAMDYWGHGTSVTVSS VL: DIELTQSPASLAVSLGQRATISCKASQSVDYDGESYMNWYQQKPGQPPKLLIYAASNLESGIPARFSGSGSGTDFTLNIHPVEEEDAATYYCQQSYDDPRAFGGGTKLEIK | 0.169 absorbance (450 nm) | 1.87 absorbance (450 nm) | 3.11 absorbance (450 nm) | 0.622 absorbance (450 nm) | 0.193 absorbance (450 nm) | 0.318 absorbance (450 nm) | 3.27 absorbance (450 nm) | 0.207 absorbance (450 nm) | –
DIR antibody IR-II-4 (antibody, V domains shown, Monoclonal antibody) VH: QVQLQQSGAELMKPGASVKISCKATGYTFSSYWIEWVKQRPGHGLEWIGEILPGSGSTNYNEKFKGKATFTADTSSNTAYMQLNSLTSEDSAVYYCARTDDGYLSYFAMDYWGQGTSVTVSS VL: DILMTQTPASLAVSLGQRATISCKASQSVDYDGDSYMNWYQQKPGQPPKLLIYAASNLESGIPARFSGSGSGTDFTLNIHPVEEEDAATYYCQQSNEDPRTFGGGTKLEIK | 0.0751 absorbance (450 nm) | 0.555 absorbance (450 nm) | 3.3 absorbance (450 nm) | 0.186 absorbance (450 nm) | 0.0775 absorbance (450 nm) | 0.136 absorbance (450 nm) | 1.77 absorbance (450 nm) | 0.0955 absorbance (450 nm) | –
